According to patent publication US20190358242A1, “COMPOSITIONS, KITS, AND METHODS TO INDUCE ACQUIRED CYTORESISTANCE USING STRESS PROTEIN INDUCERS” (FRED HUTCHINSON CANCER RESEARCH CENTER, priority 2017, published 2019):
Values joined by “and” are separate entries in the source; they are usually repeats but may differ in a detail not shown here. Equal entries are not always repeated.

B1: myoglobin (protein, UniProt P68082 2-154, looked up)
Myoglobin: GLSDGEWQQVLNVWGKVEADIAGHGQEVLIRLFTGHPETLEKFDKFKHLKTEAEMKASEDLKKHGTVVLTALGGILKKKGHHEAELKPLAQSHATKHKIPIKYLEFISDAIIHVLHSKHPGDFGADAQGAMTKALELFRNDIAAKYKELGFQG
notes: Lyophilized horse skeletal muscle (myoglobin) (Sigma Chemicals), a heme protein

Columns and labels:
HO-1 mRNA [1] = experiment: SnPP vs. SnMeP: renal cortical HO-1 mRNA induction (RT-PCR); format: in vivo, mice; settings: 1 umole, 4 hrs post injection, n 3
Source text: (§1) FIG. 28. Comparison of SnPP vs. SnMeP effects on renal cortical HO-1 and haptoglobin mRNA induction 4 hrs post agent injection. Mice received either 1 umole tin protoporphyrin (SnPP), tin mesoporphyrin (SnMeP), or vehicle (n, 3 each) and 4 hrs renal cortical RNA was extracted and subjected to RT-PCR.

HO-1 protein [2] = experiment: Tin mesoporphyrin: renal cortical and plasma HO-1 protein (ELISA); format: in vivo, mice
Source text: FIG. 29. Tin mesoporphryin effects on renal cortical and plasma HO-1 protein levels at 4 and 18 hrs post 1 umole injection. By 4 hrs and 18 hrs post Sn mesoporphyrin injection, an approximate 3 fold and 5 fold increases in renal cortical HO-1 levels over baseline (BL) were observed, as detected by ELISA. Plasma HO-1 levels rose ˜15 fold by 18 hrs post injection (n, 3-4 per group).

haptoglobin mRNA = experiment: SnPP vs. SnMeP: renal cortical haptoglobin mRNA induction (RT-PCR); format: in vivo, mice; settings: 1 umole, 4 hrs post injection, n 3
Source text: as §1

haptoglobin [3] = experiment: Tin mesoporphyrin: renal cortical and plasma haptoglobin levels; format: in vivo, mice; settings: 4 and 18 hrs post 1 umole injection
[4] = system: bilateral renal ischemic injury; experiment: 22 min bilateral renal ischemic injury after mesoporphyrin pre-treatment; format: in vivo, mice; settings: 1 umole 18 hrs before 22 min bilateral ischemic injury
Method: FIG. 31. Tin mesoporphyrin pre-treatment mitigates renal ischemic injury. Mice received either 1 umole of Sn mesoporphyrin (MeP; n, 3) or vehicle (n,4) and 18 hrs later they were all subjected to 22 min of bilateral ischemic injury.
Protection against acute kidney injury. Mice are treated with MesP alone (0.1-20.5 umoles), FeS alone (1 mg), MesP+FeS, or vehicle injection. Eighteen hrs post injections, the mice are anesthetized with pentobarbital. The abdominal cavities are opened. The renal pedicles are identified, and both are occluded with microvascular clamps. Body temperature are maintained at 36-37° C. throughout. Following 22 minutes of bilateral renal ischemia, the clamps are removed, uniform reperfusion are confirmed by the loss of tissue cyanosis, and then the abdominal cavities are closed in two layers with silk suture. Eighteen hrs later, the mice are re-anesthetized, the abdominal cavities are re-opened, and terminal blood samples are obtained from the vena cava. AKI severity are determined by degrees of BUN and plasma creatinine increases.

HO-1 mRNA [5] = experiment: Renal HO-1 mRNA (RT-PCR, HO-1/GAPDH) after IV myoglobin, SnPP or both; format: in vivo, CD-1 mice
Source text: (§2) The Glycerol Model of AKI. This is a widely used model of rhabdomyolysis-induced AKI that has been employed worldwide for 50 years. The model was used to test whether prophylactic interventions confer protection against AKI. Basically, the protocol is as follows: Male CD-1 mice (35-45 grams), obtained from Charles River Laboratories, Wilmington, Mass. were studied. Mice were maintained under standard vivarium conditions and generally housed for 1-3 weeks prior to study. The mice were placed in a cylindrical restraining cage, and then were given a tail vein injection of the test substances (see below) or test substance vehicle. The mice were then returned to their cages. Eighteen hours (hrs) later, the mice were briefly anesthetized by isoflurane inhalation, and given an intramuscular injection of hypertonic (50%) glycerol in a dose of 9 ml/Kg body weight. The dose is divided in two, with half injected into the muscle of each of the hind limbs. The mice were then returned to their cages. Eighteen hrs later, the mice were deeply anesthetized with pentobarbital (50-100 mg/Kg), the abdominal cavity was opened through a midline abdominal incision, a blood sample was obtained from the abdominal vena cava and the kidneys were resected. A kidney cross section was obtained and fixed in formalin for subsequent histologic analysis. The terminal blood samples were analyzed for BUN and creatinine, using commercially available assay kits. The remaining kidney tissue was subjected to cortical dissection, and the cortical tissues were then extracted for protein and RNA. The protein samples were saved for analysis of HO-1 levels, and the RNA samples were subjected to RT-PCR to quantify HO-1 mRNA as well as levels of other stress gene mRNAs (e.g. NGAL, haptoglobin, hemopexin, hepicidin).
(§3) Myoglobin+SnPP: To 5 mg of dry myoglobin was added 0.9 ml of PBS+0.1 ml of a stock SnPP solution (50 umole/ml). The resulting final concentrations were 5 mg/ml myoglobin+5 umoles/ml of SnPP. The tail vein was injected with 200 ul of this solution, which equals 1 mg myoglobin+1 umole SnPP. […]
[…] To confirm that the myoglobin+SnPP has a synergistic effect in inducing HO-1 mRNA and HO-1 protein levels, each of the above combinations have been administered alone via tail vein injection. […] For additional information regarding methods, see Zager et al., Am J Physiol Renal Physiol. 2014 Jul. 30. Pii.

HK-2 cells = experiment: HK-2 cell injury by MTT assay; format: cell-based; settings: 10 mg/mL, 18 hr incubation
Method: HK-2 cells (a proximal tubule cell line derived from normal human kidney) were incubated in keratinocyte serum free medium either under normal (control) conditions or in the presence of 10 mg/mL horse skeletal muscle myoglobin or nitrited myoglobin (produced by equimolar Na nitrite addition to 10 mg/ml myoglobin). After 18 hr incubations, the severity of cell injury (% cell death) was assessed by MTT assay. Myoglobin induced 40% cell death (40% decrease in MTT cell uptake), compared to control incubated cells. Nitrite binding to myoglobin reduced cell death by 75%. Thus, nitrite binding is able to reduce myoglobin's cytotoxic effects.

[6] = set-up: species or system mice; settings: mouse, in vivo, iv
HO-1 protein [7] = experiment: Renal cortex HO-1 protein (ELISA) after IV myoglobin, SnPP or both; format: in vivo, CD-1 mice; settings: 4 hr IV; 1 mg myoglobin, 1 μmole SnPP
Source text: as §2, §3
Four hr post myoglobin vs myoglobin+SnPP vs SnPP alone experiments. To confirm that the myoglobin+SnPP has a synergistic effect in inducing HO-1 mRNA and HO-1 protein levels, each of the above combinations have been administered alone via tail vein injection. Four hrs later, the mice were sacrificed as noted above and the kidneys were harvested for assessment of HO-1 mRNA and protein levels. For additional information regarding methods, see Zager et al., Am J Physiol Renal Physiol. 2014 Jul. 30. Pii.
Given that it is just 4 hrs post injection, the mRNA increases are greater than the protein increases as protein synthesis must follow the mRNA induction-requiring more time.

haptoglobin [8] = experiment: Haptoglobin protein expression after SQ injection of myoglobin with or without PEG; format: in vivo, mice; settings: 4 hour time point after SQ injection
Method: Myoglobin+PEG: To a stock solution of 20 mg/ml Mgb in PBS was added 100 mg/ml of PEG-6000; […]. This was administered as a subcutaneous injection in the dorsal neck (250 ul total injection). For combined Mgb/PEG+SnPP, SnPP was added to the above in a concentration of 3 mg/ml.

HO-1 protein [9] = experiment: Renal cortex HO-1 protein (ELISA) after IV myoglobin, SnPP or both; format: in vivo, CD-1 mice; settings: overnight (roughly 18 hrs) post IV; 1 mg myoglobin, 1 μmole SnPP
[10] = overnight (roughly 18 hrs) post IV, 1 mg myoglobin, 1 μmole SnPP

Row | Molecule | Renal cortical HO-1 mRNA induction (HO-1 mRNA [1]) | Increase in renal cortical HO-1 levels over baseline (HO-1 protein [2]; 4 hrs post 1 umole injection) [fold] | Increase in renal cortical HO-1 levels over baseline (HO-1 protein [2]; 18 hrs post 1 umole injection) [fold] | Rise in plasma HO-1 levels (HO-1 protein [2]; 18 hrs post 1 umole injection) [fold] | Renal cortical haptoglobin mRNA induction (haptoglobin mRNA) | Renal cortical and plasma haptoglobin levels (haptoglobin [3]) | Renal ischemic damage (BUN and plasma creatinine concentrations) [4] | HO-1/GAPDH mRNA, Average (HO-1 mRNA [5]; kidney, 4 hr post IV injection) | HO-1/GAPDH mRNA, individual mice (HO-1 mRNA [5]; kidney, 4 hr post IV injection) | HO-1/GAPDH mRNA, Average (HO-1 mRNA [5]; [10]) | HO-1/GAPDH mRNA, individual subjects (HO-1 mRNA [5]; [10]) | Cell death (decrease in MTT cell uptake) vs control incubated cells (HK-2 cells) [%] | Plasma LDH, Average [6] [Absorbance U LDH/ml] | Cortex HO-1 protein (ELISA), Average (HO-1 protein [7]) [ng HO-1/mg protein] | Cortex HO-1 protein (ELISA), individual mice (HO-1 protein [7]) | Haptoglobin protein expression (haptoglobin [8]) [ng/mg ng/mg protein] | HO-1 protein induction, Average (HO-1 protein [9]) | HO-1 protein induction, individual subjects (HO-1 protein [9])
1 | tin mesoporphyrin [SnMeP] | raised | ~3 | ~5 | ~15 | raised | stepwise increases | lessening of ischemic damage | – | – | – | – | – | – | – | – | – | – | –
2 | B1 | – | – | – | – | – | – | – | 3.93 | 7.78 and 2.93 and 2.58 and 2.41 | 0.58 | 0.71 and 0.53 and 0.51 | 40 | 4.47 | 45.4 | 40.7 ng HO-1/mg protein and 40.2 ng HO-1/mg protein and 64.7 ng HO-1/mg protein and 36.0 ng HO-1/mg protein | 32.7 ± 6.3 | 36.7 | 50.6 and 34.9 and 24.6
